The numbers were not newly measured in PMC5722893, which cites them from elsewhere.

What is called Kd is the concentration at which binding is half-saturated.

The target of data set [1] is TSLP:TSLPR complex (Homo sapiens) (UniProt Q969D9).
For the next data set, the target named is TSLPR (Homo sapiens) (UniProt Q9HC73).
Sequence of UniProt Q9HC73 (Q9HC73 23-231): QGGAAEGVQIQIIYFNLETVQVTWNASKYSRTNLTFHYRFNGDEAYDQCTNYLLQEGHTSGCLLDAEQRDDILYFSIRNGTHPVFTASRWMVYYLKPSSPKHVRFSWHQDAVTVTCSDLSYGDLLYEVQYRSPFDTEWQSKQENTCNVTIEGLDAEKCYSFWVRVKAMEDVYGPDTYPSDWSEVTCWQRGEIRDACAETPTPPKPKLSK

For the substance IL-7Ralpha (from UniProt P16871), the dissociation constant (Kd) in data set [1] is 0.029 µM.
As for TSLP (from UniProt Q969D9), in the data set with TSLPR (Homo sapiens), the Kd was 0.032 µM.
